Assays:
rat PTHR1 = biological target: T1, rat PTHR1 (Rattus norvegicus, UniProt P25961); assay: flow cytometry on cells; HEK293 cell lines stably transfected with PTHRs, in suspension, incubated on ice with 100 nM VHH sortagged with Alexafluor647, pelleted, washed and analysed; details: one partner purified
T1 construct: parathyroid hormone receptor-1, rat; also called rPTHR1; source: HEK293, stably transfected (GR35), on cells

PTHR1_(6E) = biological target: T2, PTHR1_(6E) (Homo sapiens PTHR1 with 14-residue …, UniProt Q03431, chimera); assay: flow cytometry on cells; dose response of staining with VHH-Alexafluor647 (median fluorescent intensity); cells in PBS, 1 h on ice; curves without plateau constrained to the plateau seen with other VHHs; details: one partner purified
T2 construct: PTHR1 from its start to the replaced 14-residue fragment of exon 2; replaces 14 residues of exon 2; PTHR1 from the end of the replaced fragment of exon 2 to its end; Made with the Q5 site-directed mutagenesis kit; whole receptor on cells; source: HEK293, stably transfected, on cells
T2 sequence (Q03431 whole entry, looked up, change not shown, the tested form may be a part): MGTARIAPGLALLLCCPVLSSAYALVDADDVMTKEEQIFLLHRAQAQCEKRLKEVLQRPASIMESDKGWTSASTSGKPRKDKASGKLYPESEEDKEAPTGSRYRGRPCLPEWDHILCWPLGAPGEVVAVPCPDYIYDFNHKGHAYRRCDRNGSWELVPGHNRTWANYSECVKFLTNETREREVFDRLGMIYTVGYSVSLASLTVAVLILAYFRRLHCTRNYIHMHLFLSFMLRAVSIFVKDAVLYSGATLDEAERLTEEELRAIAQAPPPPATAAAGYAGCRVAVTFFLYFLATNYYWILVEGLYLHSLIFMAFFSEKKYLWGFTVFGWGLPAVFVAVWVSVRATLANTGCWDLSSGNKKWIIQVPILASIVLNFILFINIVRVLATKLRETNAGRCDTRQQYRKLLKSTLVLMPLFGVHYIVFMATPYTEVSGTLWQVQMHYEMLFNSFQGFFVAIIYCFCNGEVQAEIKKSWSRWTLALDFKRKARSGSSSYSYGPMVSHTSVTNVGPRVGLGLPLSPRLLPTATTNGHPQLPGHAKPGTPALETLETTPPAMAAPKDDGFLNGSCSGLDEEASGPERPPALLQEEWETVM

T1 sequence (P25961 27-591): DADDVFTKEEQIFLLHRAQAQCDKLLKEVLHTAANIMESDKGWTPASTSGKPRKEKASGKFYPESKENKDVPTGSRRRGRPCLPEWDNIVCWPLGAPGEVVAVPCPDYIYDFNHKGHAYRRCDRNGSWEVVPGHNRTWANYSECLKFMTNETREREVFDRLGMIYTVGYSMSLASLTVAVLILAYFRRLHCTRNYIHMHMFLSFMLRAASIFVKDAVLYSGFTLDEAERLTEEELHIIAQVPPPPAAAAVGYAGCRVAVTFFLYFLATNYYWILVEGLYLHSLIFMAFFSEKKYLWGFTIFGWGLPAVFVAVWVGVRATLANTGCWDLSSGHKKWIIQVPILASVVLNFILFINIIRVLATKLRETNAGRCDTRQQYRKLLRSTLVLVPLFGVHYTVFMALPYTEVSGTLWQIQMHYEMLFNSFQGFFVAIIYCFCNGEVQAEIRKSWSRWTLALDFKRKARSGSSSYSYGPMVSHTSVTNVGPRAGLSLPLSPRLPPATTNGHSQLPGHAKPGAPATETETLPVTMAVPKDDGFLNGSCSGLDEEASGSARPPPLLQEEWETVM

Row | Binder | binding result (rat PTHR1) | EC50 (PTHR1_(6E)) [nM]
1 | VHH_(PTHR) (VHH, VHH 22A3; sortase motif of the expressed construct PelB-VHH-LPETGG-His6; on sortagging what follows LPET is replaced by the GGG of the label; Expressed as PelB-VHH-LPETGG-His6; also called 22A3; VHH_(PTHR)-tetramethylrhodamine; source: E. coli WK6 (pHEN6 vector), osmotic shock, purified (Ni-NTA), then sortagged; not shown: His6, C-terminal, cleaved) VHH: EVQLVESGGGLVQAGGSLRLSCAASGNIFANNIMGWYRQPPGKEREFVAHVSHDGDSMYAVSVKGRFAISRKDATNLYLQMNSLKPEDTAIYFCRLLNIPTQGRMEGFWGQGTQVTVSS | binds | –
2 | VHH6E (VHH, VHH05; sortase motif of the expressed construct PelB-VHH-LPETGG-His6; on sortagging what follows LPET is replaced by the GGG of the label; Recognises a 14-mer peptide of UBC6e; also called VHH05; source: E. coli WK6 (pHEN6 vector), osmotic shock, purified (Ni-NTA), then sortagged; not shown: His6, C-terminal, cleaved) VHH: QVQLQESGGGLVQPGGSLRLSCAASGFVFENSAMAWYRQAPGKERELIAVIGTTFIKLAESVKGRFTISRDNAKSTVYLQMNNLKPEDTAVYYCSKSGAYWGQGTQVTVSS | – | < 10

From article PMC7190724, “Improved GPCR ligands from nanobody tethering” (Nature Communications, 2020)
